# From the supplement of paper PMC10567573
# B1: RIPK4 (parent)
# chain: VIDLFDEQGLSALHLAAQGRHAQT
# Variants of: B1
# Experiment: protein stability index of a GFP-peptide fusion (GPS, HEK-293T) (PSI 1-6); higher = more stable
# Conditions: c terminus: a fixed tail appended
# 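Note: lentivirally expressed fusions sorted by FACS into six bins by GFP to DsRed ratio, PSI derived from sequencing read proportions per bin multiplied by bin number.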
row,Variant,protein stability index
1,VIDLFCEQGLSALHLAAQGRHAQT [D6C],2.39
2,VIDLFSEQGLSALHLAAQGRHAQT [D6S],2.57
3,VIDLFEEQGLSALHLAAQGRHAQT [D6E],2.71
4,VIDLFTEQGLSALHLAAQGRHAQT [D6T],2.15
5,VIDLFPEQGLSALHLAAQGRHAQT [D6P],3.13
6,VIDLFGEQGLSALHLAAQGRHAQT [D6G],1.77
7,VIDLFREQGLSALHLAAQGRHAQT [D6R],2.04
8,VIDLFWEQGLSALHLAAQGRHAQT [D6W],2.55
9,VIDLFQEQGLSALHLAAQGRHAQT [D6Q],2.13
10,VIDLFYEQGLSALHLAAQGRHAQT [D6Y],1.63
11,VIDLFFEQGLSALHLAAQGRHAQT [D6F],2.33
12,VIDLFMEQGLSALHLAAQGRHAQT [D6M],1.97
13,VIDLFKEQGLSALHLAAQGRHAQT [D6K],1.81
14,VIDLFAEQGLSALHLAAQGRHAQT [D6A],1.91
15,VIDLFNEQGLSALHLAAQGRHAQT [D6N],1.96
16,VIDLFVEQGLSALHLAAQGRHAQT [D6V],3.75
17,VIDLFHEQGLSALHLAAQGRHAQT [D6H],2.06
18,VIDLFIEQGLSALHLAAQGRHAQT [D6I],4.12
19,VIDLFDEQGLSARHLAAQGRHAQT [L13R],3.31
20,VIDLFDEQGLSAKHLAAQGRHAQT [L13K],3.61
21,VIDLFDEQGLSAWHLAAQGRHAQT [L13W],2.82
22,VIDLFDEQGLSAFHLAAQGRHAQT [L13F],2.87
23,VIDLFDEQGLSAMHLAAQGRHAQT [L13M],3.66
24,VIDLFDEQGLSADHLAAQGRHAQT [L13D],4.04

row,Variant,protein stability index
1,VIDLFDEQGLSAGHLAAQGRHAQT [L13G],3.87
2,VIDLFDEQGLSAPHLAAQGRHAQT [L13P],4.04
3,VIDLFDEQGLSASHLAAQGRHAQT [L13S],3.58
4,VIDLFDEQGLSACHLAAQGRHAQT [L13C],2.22
5,VIDLFDEQGLSAHHLAAQGRHAQT [L13H],3.48
6,VIDLFDEQGLSATHLAAQGRHAQT [L13T],3.56
7,VIDLFDEQGLSAYHLAAQGRHAQT [L13Y],2.53
8,VIDLFDEQGLSAAHLAAQGRHAQT [L13A],3.38
9,VIDLFDEQGLSAIHLAAQGRHAQT [L13I],2.75
10,VIDLFDEQGLSANHLAAQGRHAQT [L13N],3.3
11,VIDLFDEQGLSAEHLAAQGRHAQT [L13E],4.17
12,VIDLFDEQGLSAVHLAAQGRHAQT [L13V],3.06
13,VIDLFDEQGLSAQHLAAQGRHAQT [L13Q],3.8
14,VIDLFDEQGLSWLHLAAQGRHAQT [A12W],2.12
15,VIDLFDEQGLSFLHLAAQGRHAQT [A12F],2.05
16,VIDLFDEQGLSELHLAAQGRHAQT [A12E],3.54
17,VIDLFDEQGLSHLHLAAQGRHAQT [A12H],2.6
18,VIDLFDEQGLSGLHLAAQGRHAQT [A12G],2.39
19,VIDLFDEQGLSVLHLAAQGRHAQT [A12V],1.99
20,VIDLFDEQGLSILHLAAQGRHAQT [A12I],1.91
21,VIDLFDEQGLSYLHLAAQGRHAQT [A12Y],2.54
22,VIDLFDEQGLSCLHLAAQGRHAQT [A12C],2.36
23,VIDLFDEQGLSKLHLAAQGRHAQT [A12K],3.5
24,VIDLFDEQGLSNLHLAAQGRHAQT [A12N],3.1

row,Variant,protein stability index
1,VIDLFDEQGLSTLHLAAQGRHAQT [A12T],2.82
2,VIDLFDEQGLSSLHLAAQGRHAQT [A12S],2.96
3,VIDLFDEQGLSRLHLAAQGRHAQT [A12R],3.12
4,VIDLFDEQGLSQLHLAAQGRHAQT [A12Q],3.29
5,VIDLFDEQGLSMLHLAAQGRHAQT [A12M],2.46
6,VIDLFDEQGLSDLHLAAQGRHAQT [A12D],3.21
7,VIDLFDEQGLSLLHLAAQGRHAQT [A12L],1.98
8,VIDLFDEQGLSPLHLAAQGRHAQT [A12P],3.25
9,VIDLFDEQGLLALHLAAQGRHAQT [S11L],2.36
10,VIDLFDEQGLGALHLAAQGRHAQT [S11G],2.94
11,VIDLFDEQGLQALHLAAQGRHAQT [S11Q],2.95
12,VIDLFDEQGLMALHLAAQGRHAQT [S11M],2.18
13,VIDLFDEQGLPALHLAAQGRHAQT [S11P],2.95
14,VIDLFDEQGLTALHLAAQGRHAQT [S11T],2.63
15,VIDLFDEQGLCALHLAAQGRHAQT [S11C],2.63
16,VIDLFDEQGLFALHLAAQGRHAQT [S11F],2.43
17,VIDLFDEQGLIALHLAAQGRHAQT [S11I],2.13
18,VIDLFDEQGLKALHLAAQGRHAQT [S11K],2.65
19,VIDLFDEQGLAALHLAAQGRHAQT [S11A],2.79
20,VIDLFDEQGLNALHLAAQGRHAQT [S11N],2.95
21,VIDLFDEQGLRALHLAAQGRHAQT [S11R],2.03
22,VIDLFDEQGLDALHLAAQGRHAQT [S11D],3.04
23,VIDLFDEQGLVALHLAAQGRHAQT [S11V],2.12
24,VIDLFDEQGLYALHLAAQGRHAQT [S11Y],2.31

row,Variant,protein stability index
1,VIDLFDEQGLEALHLAAQGRHAQT [S11E],3.11
2,VIDLFDEQGLHALHLAAQGRHAQT [S11H],2.51
3,VIDLFDEQGLWALHLAAQGRHAQT [S11W],2.52
4,VIDLFDEQSLSALHLAAQGRHAQT [G9S],2.68
5,VIDLFDEQALSALHLAAQGRHAQT [G9A],2.76
6,VIDLFDEQLLSALHLAAQGRHAQT [G9L],2.07
7,VIDLFDEQHLSALHLAAQGRHAQT [G9H],2.77
8,VIDLFDEQNLSALHLAAQGRHAQT [G9N],3.41
9,VIDLFDEQTLSALHLAAQGRHAQT [G9T],2.25
10,VIDLFDEQELSALHLAAQGRHAQT [G9E],3.13
11,VIDLFDEQCLSALHLAAQGRHAQT [G9C],2.19
12,VIDLFDEQVLSALHLAAQGRHAQT [G9V],1.66
13,VIDLFDEQWLSALHLAAQGRHAQT [G9W],1.69
14,VIDLFDEQMLSALHLAAQGRHAQT [G9M],1.93
15,VIDLFDEQYLSALHLAAQGRHAQT [G9Y],1.6
16,VIDLFDEQPLSALHLAAQGRHAQT [G9P],3.2
17,VIDLFDEQQLSALHLAAQGRHAQT [G9Q],2.75
18,VIDLFDEQILSALHLAAQGRHAQT [G9I],1.94
19,VIDLFDEQKLSALHLAAQGRHAQT [G9K],2.56
20,VIDLFDEQDLSALHLAAQGRHAQT [G9D],3.16
21,VIDLFDEQRLSALHLAAQGRHAQT [G9R],2.4
22,VIDLFDEQFLSALHLAAQGRHAQT [G9F],1.61
